Abundance fitness data for 45 variants are collected here from the Human Domainome abundance scans (Beltran et al. 2025).

B1: CD2-associated protein, residues 1 to 59; numbered along this chain, Q9Y5K6 (parent)
chain: MVDYIVEYDYDAVHDDELTIRVGEIIRNVKKLQEEGWLEGELNGRRGMFPDNFVKEIKR

± gives the uncertainty stated by the source.

In the data set the parent is B1. Description: abundance fitness (aPCA) (normalised: wild type 0, dead -1); higher = more abundant; growth selection in yeast, the domain comes from the species named. The settings on record: Homo sapiens.
Take MVDYIFEYDYDAVHDDELTIRVGEIIRNVKKLQEEGWLEGELNGRRGMFPDNFVKEIKR [V6F]: the abundance fitness was -0.483 ± 0.13.

In the case of MVDYITEYDYDAVHDDELTIRVGEIIRNVKKLQEEGWLEGELNGRRGMFPDNFVKEIKR [V6T], the abundance fitness was -0.367 ± 0.082.

Regarding MVDYIHEYDYDAVHDDELTIRVGEIIRNVKKLQEEGWLEGELNGRRGMFPDNFVKEIKR [V6H], the abundance fitness was -0.832 ± 0.2.

As for MVDYIEEYDYDAVHDDELTIRVGEIIRNVKKLQEEGWLEGELNGRRGMFPDNFVKEIKR [V6E], the abundance fitness is -0.96 ± 0.33.

MVDYIKEYDYDAVHDDELTIRVGEIIRNVKKLQEEGWLEGELNGRRGMFPDNFVKEIKR [V6K]: the abundance fitness was -0.579 ± 0.18.

As for MVDYISEYDYDAVHDDELTIRVGEIIRNVKKLQEEGWLEGELNGRRGMFPDNFVKEIKR [V6S], the abundance fitness was -0.363 ± 0.054.

Turning to MVDYIAEYDYDAVHDDELTIRVGEIIRNVKKLQEEGWLEGELNGRRGMFPDNFVKEIKR [V6A], the abundance fitness was -0.08 ± 0.063.

For MVDYIYEYDYDAVHDDELTIRVGEIIRNVKKLQEEGWLEGELNGRRGMFPDNFVKEIKR [V6Y], the abundance fitness is -0.52 ± 0.14.

For the variant MVDYIGEYDYDAVHDDELTIRVGEIIRNVKKLQEEGWLEGELNGRRGMFPDNFVKEIKR [V6G], the abundance fitness was -0.438 ± 0.066.

In the case of MVDYIPEYDYDAVHDDELTIRVGEIIRNVKKLQEEGWLEGELNGRRGMFPDNFVKEIKR [V6P], the abundance fitness was -1.2 ± 0.39.

MVDYIMEYDYDAVHDDELTIRVGEIIRNVKKLQEEGWLEGELNGRRGMFPDNFVKEIKR [V6M]: the abundance fitness was -0.795 ± 0.2.

As to MVDYINEYDYDAVHDDELTIRVGEIIRNVKKLQEEGWLEGELNGRRGMFPDNFVKEIKR [V6N], the abundance fitness is -1.04 ± 0.31.

As to MVDYIREYDYDAVHDDELTIRVGEIIRNVKKLQEEGWLEGELNGRRGMFPDNFVKEIKR [V6R], the abundance fitness was -0.875 ± 0.12.

For MVDKIVEYDYDAVHDDELTIRVGEIIRNVKKLQEEGWLEGELNGRRGMFPDNFVKEIKR [Y4K], the abundance fitness was -0.486 ± 0.15.

Regarding MVDWIVEYDYDAVHDDELTIRVGEIIRNVKKLQEEGWLEGELNGRRGMFPDNFVKEIKR [Y4W], the abundance fitness is -0.166 ± 0.098.

Turning to MVDQIVEYDYDAVHDDELTIRVGEIIRNVKKLQEEGWLEGELNGRRGMFPDNFVKEIKR [Y4Q], the abundance fitness was -0.687 ± 0.39.

On to MVDDIVEYDYDAVHDDELTIRVGEIIRNVKKLQEEGWLEGELNGRRGMFPDNFVKEIKR [Y4D], for which the abundance fitness was -0.826 ± 0.26.

On to MVDRIVEYDYDAVHDDELTIRVGEIIRNVKKLQEEGWLEGELNGRRGMFPDNFVKEIKR [Y4R], for which the abundance fitness is -0.404 ± 0.091.

For MVDAIVEYDYDAVHDDELTIRVGEIIRNVKKLQEEGWLEGELNGRRGMFPDNFVKEIKR [Y4A], the abundance fitness is -0.254 ± 0.15.

Consider MVDHIVEYDYDAVHDDELTIRVGEIIRNVKKLQEEGWLEGELNGRRGMFPDNFVKEIKR [Y4H], for which the abundance fitness is -0.554 ± 0.21.

For the variant MVDTIVEYDYDAVHDDELTIRVGEIIRNVKKLQEEGWLEGELNGRRGMFPDNFVKEIKR [Y4T], the abundance fitness is -0.136 ± 0.12.

As for MVDCIVEYDYDAVHDDELTIRVGEIIRNVKKLQEEGWLEGELNGRRGMFPDNFVKEIKR [Y4C], the abundance fitness was -0.173 ± 0.14.

Regarding MVDIIVEYDYDAVHDDELTIRVGEIIRNVKKLQEEGWLEGELNGRRGMFPDNFVKEIKR [Y4I], the abundance fitness was -0.844 ± 0.28.

With MVDMIVEYDYDAVHDDELTIRVGEIIRNVKKLQEEGWLEGELNGRRGMFPDNFVKEIKR [Y4M], the abundance fitness is -0.086 ± 0.13.

As for MVDPIVEYDYDAVHDDELTIRVGEIIRNVKKLQEEGWLEGELNGRRGMFPDNFVKEIKR [Y4P], the abundance fitness is -0.863 ± 0.35.

On to MVDLIVEYDYDAVHDDELTIRVGEIIRNVKKLQEEGWLEGELNGRRGMFPDNFVKEIKR [Y4L], for which the abundance fitness was -0.476 ± 0.11.

Consider MVDVIVEYDYDAVHDDELTIRVGEIIRNVKKLQEEGWLEGELNGRRGMFPDNFVKEIKR [Y4V], for which the abundance fitness is -0.042 ± 0.13.

As to RVDYIVEYDYDAVHDDELTIRVGEIIRNVKKLQEEGWLEGELNGRRGMFPDNFVKEIKR [M1R], the abundance fitness is -0.083 ± 0.12.

Consider VVDYIVEYDYDAVHDDELTIRVGEIIRNVKKLQEEGWLEGELNGRRGMFPDNFVKEIKR [M1V], for which the abundance fitness was -0.153 ± 0.15.

In the case of CVDYIVEYDYDAVHDDELTIRVGEIIRNVKKLQEEGWLEGELNGRRGMFPDNFVKEIKR [M1C], the abundance fitness is -0.28 ± 0.15.

Turning to QVDYIVEYDYDAVHDDELTIRVGEIIRNVKKLQEEGWLEGELNGRRGMFPDNFVKEIKR [M1Q], the abundance fitness is -0.301 ± 0.34.

Turning to HVDYIVEYDYDAVHDDELTIRVGEIIRNVKKLQEEGWLEGELNGRRGMFPDNFVKEIKR [M1H], the abundance fitness was -0.209 ± 0.21.

Take EVDYIVEYDYDAVHDDELTIRVGEIIRNVKKLQEEGWLEGELNGRRGMFPDNFVKEIKR [M1E]: the abundance fitness is -0.276 ± 0.23.

As for SVDYIVEYDYDAVHDDELTIRVGEIIRNVKKLQEEGWLEGELNGRRGMFPDNFVKEIKR [M1S], the abundance fitness turned out to be 0.072 ± 0.14.

For YVDYIVEYDYDAVHDDELTIRVGEIIRNVKKLQEEGWLEGELNGRRGMFPDNFVKEIKR [M1Y], the abundance fitness was -0.375 ± 0.37.

With AVDYIVEYDYDAVHDDELTIRVGEIIRNVKKLQEEGWLEGELNGRRGMFPDNFVKEIKR [M1A], the abundance fitness is 0.05 ± 0.4.

As to FVDYIVEYDYDAVHDDELTIRVGEIIRNVKKLQEEGWLEGELNGRRGMFPDNFVKEIKR [M1F], the abundance fitness is -0.137 ± 0.38.

For the variant LVDYIVEYDYDAVHDDELTIRVGEIIRNVKKLQEEGWLEGELNGRRGMFPDNFVKEIKR [M1L], the abundance fitness worked out at 0.015 ± 0.097.

GVDYIVEYDYDAVHDDELTIRVGEIIRNVKKLQEEGWLEGELNGRRGMFPDNFVKEIKR [M1G]: the abundance fitness is -0.14 ± 0.14.

In the case of KVDYIVEYDYDAVHDDELTIRVGEIIRNVKKLQEEGWLEGELNGRRGMFPDNFVKEIKR [M1K], the abundance fitness is 0.142 ± 0.12.

Regarding NVDYIVEYDYDAVHDDELTIRVGEIIRNVKKLQEEGWLEGELNGRRGMFPDNFVKEIKR [M1N], the abundance fitness was -0.425 ± 0.34.

For the variant TVDYIVEYDYDAVHDDELTIRVGEIIRNVKKLQEEGWLEGELNGRRGMFPDNFVKEIKR [M1T], the abundance fitness was -0.228 ± 0.11.

Regarding WVDYIVEYDYDAVHDDELTIRVGEIIRNVKKLQEEGWLEGELNGRRGMFPDNFVKEIKR [M1W], the abundance fitness was -0.163 ± 0.1.

Take IVDYIVEYDYDAVHDDELTIRVGEIIRNVKKLQEEGWLEGELNGRRGMFPDNFVKEIKR [M1I]: the abundance fitness is 0.078 ± 0.17.

In the case of MSDYIVEYDYDAVHDDELTIRVGEIIRNVKKLQEEGWLEGELNGRRGMFPDNFVKEIKR [V2S], the abundance fitness was -0.029 ± 0.15.
